Numbering of substitutions follows the chain as printed.
B1: PC61 mIgG2a (antibody, from another filing, V domains shown)
VH: EVQLQQSGAELVRPGTSVKLSCKVSGDTITAYYIHFVKQRPGQGLEWIGRIDPEDDSTEYAEKFKNKATITANTSSNTAHLKYSRLTSEDTATYFCTTDNMGATEFVYWGQGTLVTVSS
VL: QVVLTQPKSVSASLESTVKLSCKLNSGNIGSYYMHWYQQREGRSPTNLIYRDDKRPDGAPDRFSGSIDISSNSAFLTINNVQTEDEAMYFCHSYDGRMYIFGGGTKLTV
B2: CD25 antibody SG25Ab-4 (antibody, human IgG1, lambda, V domains shown)
VH: EVQLVQSGAEVKKPGESLKISCKGPEYSFNRYWIAWVRQRPGKGLEWMGIIYPGDSDARYSPTFEGHVTLSADMSLTTAYLQWSSLRASDTAMYYCARLGSYYAFDIWGKGTMVTVSS
VL: QSALTQPASVSGSPGQSITIFCTGTSSDVGGYNYVSWYQQHPGKAPKLMIYDVSKRPSGVSNRFSGSKSGNTASLTISGLQAEDEADYYCSSYTSSSTWVFGGGTQLTVLS
notes: IgG1 format; also called SGAb25-4
B3: CD25 antibody SG25Ab-9 (antibody, human IgG1, lambda, V domains shown)
VH: QVQLVQSGAEVKKPGESLKISCKGSGYSSTSYWIGWVRQMPGKGLEWMGIIYPGDSDTRYSPSFQGQVTISADKSISTAYLQWSSLKASDTAMYYCARLGSYYAFDIWGRGTMVTVSS
VL: QSALTQPASVSASPGQSITISCTGTSSDVGAYIYVSWYQQLSGKPPKLILYDVSKRPSGISDRFSGSKSGNTASLTISGLQADDEADYYCSSYTRSSTWVFGGGTQLTVLG
notes: Fully human antibody from a phage scFv library, expressed as IgG1 with a lambda light chain; HC and LC are the entries without signal peptide; also called SG25Ab-9 IgG1; SGAb25-9
B4: detuned CD25 antibody SG25Ab-9 YH98A (antibody, human IgG1, lambda, V domains shown)
VH: B3 VH with Y102A
VL: B3 VL
notes: IgG1; Tyr to Ala in CDR-H3 (YH98A); also called SGAb25-9 YH98A
B5: SG25Ab-9 variant YH27A (antibody, V domains shown)
VH: B3 VH with Y27A
VL: B3 VL
B6: SG25Ab-9 variant SH55N (antibody, V domains shown)
VH: B3 VH with S56N
VL: B3 VL
B7: SG25Ab-9 variant GH53Y (antibody, V domains shown)
VH: B3 VH with G54Y
VL: B3 VL
B8: SG25Ab-9 variant SH28W (antibody, V domains shown)
VH: B3 VH with S28W
VL: B3 VL
B9: SG25Ab-9 variant FH100AN (antibody, V domains shown)
VH: B3 VH with F105N
VL: B3 VL
B10: SG25Ab-9 variant FH100AA (antibody, V domains shown)
VH: B3 VH with F105A
VL: B3 VL
B11: SG25Ab-9 variant DH101K (antibody, V domains shown)
VH: B3 VH with D106K
VL: B3 VL
B12: SG25Ab-9 variant YH52A (antibody, V domains shown)
VH: B3 VH with Y52A
VL: B3 VL
B13: SG25Ab-9 variant YH32A (antibody, V domains shown)
VH: B3 VH with Y32A
VL: B3 VL
B14: SG25Ab-9 variant DH56K (antibody, V domains shown)
VH: B3 VH with D57K
VL: B3 VL
B15: SG25Ab-9 variant GH96W (antibody, V domains shown)
VH: B3 VH with G100W
VL: B3 VL
B16: SG25Ab-9 variant DH54K (antibody, V domains shown)
VH: B3 VH with D55K
VL: B3 VL
B17: SG25Ab-9 variant AH100F (antibody, V domains shown)
VH: B3 VH with A104F
VL: B3 VL
B18: SG25Ab-9 variant YH99A (antibody, V domains shown)
VH: B3 VH with Y103A
VL: B3 VL
notes: Kabat-type numbering, not linear

Biological target: T1, mouse CD25 on Yac-1 mouse lymphoma cells (mouse) (UniProt P01590)
T1 sequence (looked up): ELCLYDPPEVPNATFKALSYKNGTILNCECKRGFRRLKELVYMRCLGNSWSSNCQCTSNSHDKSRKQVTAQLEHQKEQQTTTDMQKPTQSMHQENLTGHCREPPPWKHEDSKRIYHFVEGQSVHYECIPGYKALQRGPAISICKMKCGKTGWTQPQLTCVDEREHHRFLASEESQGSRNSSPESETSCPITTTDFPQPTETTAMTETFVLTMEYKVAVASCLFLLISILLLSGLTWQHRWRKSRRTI
Test: saturation binding by flow cytometry on Yac-1 cells

Work on B1 yielded a Kd of 0.7 nM.

Biological target: T2, recombinant cynomolgus CD25 (cynomolgus, UniProt H6WS54 22-213)
T2 construct: also called cyno CD25; cynomolgus CD25/IL2RA
T2 sequence: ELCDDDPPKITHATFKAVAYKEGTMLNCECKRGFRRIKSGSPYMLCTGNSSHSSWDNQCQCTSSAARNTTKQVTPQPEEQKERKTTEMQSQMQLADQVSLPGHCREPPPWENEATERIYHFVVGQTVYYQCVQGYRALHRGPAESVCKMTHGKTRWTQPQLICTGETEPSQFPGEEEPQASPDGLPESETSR
Test: ELISA on plate-coated cynomolgus CD25
Description: (§1) Saturation binding ELISA experiments were performed using soluble recombinant antigens, which were diluted to an appropriate concentration in 50 mM carbonate buffer, pH 9.6. To each well of a 96- or 384-well Maxisorb ELISA plate was added 100 μL of soluble antigen. The plate was sealed and stored at 4° C. overnight. The plate was then washed 3-5 times with PBS-T was buffer (PBS, pH 7.4+0.05% Tween-20). The wells were blocked using 300 μL/well of PBS-T buffer containing BSA for 1 hour at room temperature, then washed 3-5 times with PBS-T. Dilutions of antibodies were prepared in blocking buffer and added to each well in a volume of 100 μL. The antibodies were incubated for 1 hour at room temperature, and then washed 3-5 times with PBS-T. HRP-conjugated secondary antibodies (anti-human Fc) were then added and incubated for 1 hour at room temperature. The plate was washed 3-5 times with PBS-T. The ELISA was developed by adding 100 μL of TMB solution and incubating for 3-15 min at room temperature. To stop the reaction, 100 μL of 1 N sulfuric acid was added to each well. The absorbance at 450 nm was determined using a Spectramax 190 plate reader (Molecular Biosciences) and the data plotted using GraphPad Prism 6.

B2 and B3 cannot be ordered by “EC50 (read off the curve)” value: roughly 0.1 nM for the first, 0.1 to 0.2 nM for the second.

Biological target: T3, recombinant human CD25 (human, UniProt P01589 22-213, limits assumed, biotinylated in the Octet kinetic assay (site not stated))
T3 construct: Soluble recombinant antigen; It was coated on plates for ELISA and used as bought biotinylated protein for BLI; The ELISA and BLI reagents may be different constructs; also called hCD25; CD25/IL2RA
T3 sequence: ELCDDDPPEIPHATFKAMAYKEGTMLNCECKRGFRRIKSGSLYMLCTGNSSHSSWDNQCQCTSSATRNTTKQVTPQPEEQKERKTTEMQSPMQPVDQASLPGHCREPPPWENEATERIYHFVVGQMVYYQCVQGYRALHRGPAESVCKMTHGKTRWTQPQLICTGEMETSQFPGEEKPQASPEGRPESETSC
Test: saturation binding ELISA on recombinant human CD25

First: B3
Second: B4
The EC50 of the first is 1200-fold lower: 0.1 nM for the first, roughly 116 nM for the second. The first is the more potent here.

Biological target: T3, recombinant human CD25
Test: saturation binding ELISA on recombinant human CD25
Remark: another data set of the same source
Description: as §1

B3 and B5 cannot be ordered by “EC50 (read off the curve)” value: 0.1 to 0.2 nM for the first, roughly 0.2 nM for the second.

B6 and B7 are the same in “EC50 (read off the curve)” value: roughly 0.2 nM for the first, roughly 0.2 nM for the second.

B8 was tested, and the “EC50 (read off the curve)” value was roughly 0.2 nM.

Biological target: T3, recombinant human CD25
Test: saturation binding ELISA on recombinant human CD25
Remark: another data set of the same source
Description: as §1

First: B3
Second: B9
The “EC50 (read off the curve)” value of the first is lower: 0.1 to 0.2 nM for the first, roughly 0.3 nM for the second.

Going from B10 to B11, the “EC50 (read off the curve)” value falls from roughly 0.8 nM to roughly 0.2 nM (4-fold).

Biological target: T2, recombinant cynomolgus CD25
Test: saturation binding ELISA on recombinant cynomolgus CD25
Description: as §1

Compared with B3, B4 is 950-fold higher in EC50: 0.25 nM for the first, roughly 238 nM for the second. The first is the more potent here.

Biological target: T3, recombinant human CD25
Test: saturation binding ELISA on plate-coated recombinant human CD25
Description: as §1

In the case of B3, the “EC50 (read off the curve)” value is reported as 0.1 to 0.2 nM.

Biological target: T3, recombinant human CD25
Test: BLI kinetics (Octet RED384), biotinylated hCD25 on SAX tips, 1:1 global fit
Description: Biotinylated recombinant human CD25 was obtained from Acro Biosystems. Biotinylated hCD25 protein was loaded on SAX (High sensitivity streptavidin) tips at 0.8 nM loading density. Affinity measurements were run using a ForteBio Octet RED384 instrument in the kinetic buffer comprising 1×PBS, 0.1% BSA, 0.02% Tween20, pH 7.4. Association measurements were performed for 300 seconds and disassociation measurements were performed for 900 seconds. Each curve was reference subtracted and modeled using a 1:1 global fit. KD results are reported as kₐ divided by kd.

Going from B3 to B12, the Kd rises from 0.1 nM to 1.3 nM (13-fold). The first binds more tightly here.

Going from B5 to B9, the Kd rises from 0.1 nM to 0.3 nM (3-fold).

Compared with B13, B14 is 190-fold higher in Kd: 0.8 nM for the first, 151 nM for the second. The first binds more tightly here.

First: B10
Second: B6
The Kd of the first is 6-fold higher: 0.6 nM for the first, 0.1 nM for the second. The second binds more tightly here.

First: B15
Second: B16
The Kd of the first is 48-fold lower: 0.5 nM for the first, 24.2 nM for the second.

Compared with B11, B17 is 20-fold higher in Kd: 0.2 nM for the first, 3.9 nM for the second.

B7 and B8 are the same in Kd: 0.1 nM for the first, 0.1 nM for the second.

Compared with B18, B4 is 1.5-fold lower in Kd: 21.5 nM for the first, 14 nM for the second.

First: B3
Second: B12
The koff of the first is 37-fold lower: 2.7e-05 s⁻¹ for the first, 0.001 s⁻¹ for the second.

First: B5
Second: B9
The koff of the first is 2.2-fold lower: 2.6e-05 s⁻¹ for the first, 5.7e-05 s⁻¹ for the second.

Going from B13 to B14, the koff rises from 0.00023 s⁻¹ to 0.004 s⁻¹ (17-fold).

Going from B10 to B6, the koff falls from 0.00017 s⁻¹ to 2.8e-05 s⁻¹ (6.1-fold).

Compared with B15, B16 is 7.9-fold higher in koff: 0.001 s⁻¹ for the first, 0.0079 s⁻¹ for the second.

First: B11
Second: B17
The koff of the first is 12-fold lower: 0.0001 s⁻¹ for the first, 0.0012 s⁻¹ for the second.

Compared with B7, B8 is 2.1-fold lower in koff: 8.1e-05 s⁻¹ for the first, 3.8e-05 s⁻¹ for the second.

Going from B18 to B4, the koff falls from 0.0085 s⁻¹ to 0.0043 s⁻¹ (2-fold).

Compared with B3, B12 is 3.7-fold higher in kon: 210000 M⁻¹ s⁻¹ for the first, 780000 M⁻¹ s⁻¹ for the second.

B5 and B9 are within 1.5-fold of each other in kon: 240000 M⁻¹ s⁻¹ for the first, 200000 M⁻¹ s⁻¹ for the second.

Going from B13 to B14, the kon falls from 300000 M⁻¹ s⁻¹ to 26000 M⁻¹ s⁻¹ (12-fold).

B10 and B6 are within 1.5-fold of each other in kon: 290000 M⁻¹ s⁻¹ for the first, 220000 M⁻¹ s⁻¹ for the second.

Going from B15 to B16, the kon falls from 1.9e+06 M⁻¹ s⁻¹ to 330000 M⁻¹ s⁻¹ (5.8-fold).

B11 and B17 are within 1.5-fold of each other in kon: 420000 M⁻¹ s⁻¹ for the first, 310000 M⁻¹ s⁻¹ for the second.

Compared with B7, B8 is 5.3-fold lower in kon: 1.6e+06 M⁻¹ s⁻¹ for the first, 300000 M⁻¹ s⁻¹ for the second.

B18 and B4 are within 1.5-fold of each other in kon: 390000 M⁻¹ s⁻¹ for the first, 310000 M⁻¹ s⁻¹ for the second.

Biological target: T2, recombinant cynomolgus CD25
Test: saturation binding ELISA on plate-coated recombinant cynomolgus CD25
Description: as §1

B3 was tested, and the “EC50 (read off the curve)” value was 0.1 to 0.2 nM.

Biological target: T3, recombinant human CD25
Test: saturation binding ELISA on recombinant human CD25; EC50 relative to SG25Ab-9
Description: as §1

In the case of B4, the “Fold Change” value is reported as roughly 1160.

Biological target: T2, recombinant cynomolgus CD25
Test: saturation binding ELISA on recombinant cynomolgus CD25; EC50 relative to SG25Ab-9
Description: as §1

B4 was tested, and the “Fold Change” value was roughly 950.

Biological target: T4, human CD25 on CD25 expressing cells (human, UniProt P01589 22-272)
T4 construct: Endogenous CD25 on human lymphoma lines (L540cy, Karpas-299) and on human Treg cells; also called CD25 on L540cy cells; CD25 on Karpas-299 cells
T4 sequence: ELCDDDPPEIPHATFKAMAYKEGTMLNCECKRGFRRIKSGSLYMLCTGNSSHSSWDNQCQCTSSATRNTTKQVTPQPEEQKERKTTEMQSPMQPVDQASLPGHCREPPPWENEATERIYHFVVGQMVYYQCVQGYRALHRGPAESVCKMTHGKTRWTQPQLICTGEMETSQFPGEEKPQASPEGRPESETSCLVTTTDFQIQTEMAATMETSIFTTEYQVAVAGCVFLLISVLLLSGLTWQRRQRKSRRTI
Test: saturation binding by flow cytometry on L540cy cells (CD25: 55,000 per cell), MFI (Gmean)
Description: (§2) For cellular binding analysis by FACS, cells expressing the target protein of interest (2×10⁵) were treated with a serial dilution of indicated antibody in staining buffer (PBS, 5% FBS, 0.2% NaN₃). Samples were incubated for 1 hour on ice and washed twice with ice-cold staining buffer. Cells were resuspended with anti-human IgG-AF488 or IgG-AF647 (JacksonImmunoResearch), 1:200 dilution in staining buffer) for 1 hour on ice. Cells were washed twice with ice cold staining buffer and resuspended in staining buffer. Labeled cells were examined by flow cytometry on an Invitrogen Attune NxT flow cytometer gated to exclude nonviable cells, and the data analyzed using FlowJo10 software. When determined, the KD was calculated using GraphPad Prism 6 using non-linear regression.
(§3) Saturation binding analysis was also performed using high CD25 expressing L540cy cells.

First: B3
Second: B12
The “EC50 (read off the curve)” value of the first is 5-fold lower: roughly 0.8 nM for the first, roughly 4 nM for the second.

Compared with B5, B13 is 5.6-fold higher in “EC50 (read off the curve)” value: roughly 0.9 nM for the first, roughly 5 nM for the second.

Compared with B6, B7 is higher in “EC50 (read off the curve)” value: roughly 0.9 nM for the first, 1 to 2 nM for the second.

B8 was tested, and the “EC50 (read off the curve)” value was roughly 0.9 nM.

Biological target: T4, human CD25 on CD25 expressing cells
Test: as above
Remark: another data set of the same source
Description: as §2, §3

B3 and B9 cannot be ordered by “EC50 (read off the curve)” value: roughly 1 nM for the first, 1 to 2 nM for the second.

B10 and B11 cannot be ordered by “EC50 (read off the curve)” value: 1 to 2 nM for the first, roughly 1 nM for the second.

Biological target: T4, human CD25 on CD25 expressing cells
Test: saturation binding by flow cytometry on Karpas 299 cells (CD25: 123,000 per cell), GeoMean MFI
Description: as §2

B2: binds.
